Assay results as given in the supplement of paper PMC11780869.

Tested on: Bacillus subtilis
Test: cleaved RNA product abundance (RNA/gDNA barcode ratio) relative to median wild-type variant (ratio to wild type); higher = more accumulation of the downstream cleavage product
Summary of the method: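 Truncated aprE or tetM reporter mRNAs with barcoded RNase Y cleavage-site windows, mutagenized from oligos at a 9% error rate, sat in the B. subtilis chromosome. Cells grew in LB at 37°C from OD600 0.0003 to 0.3. Gel-selected cleaved RNA was reverse transcribed and its barcodes sequenced with those from genomic DNA, collapsing by UMI. Cleaved product abundance equals the RNA:gDNA barcode ratio per construct over the median construct with the unmutated site.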

[1] = experiment (reporter, strain, medium): exp 8a: truncated aprE reporter, strain BJT201 with 2% xylose (RNase J1 expressed), cleavage site: glnRA (positions -5 to +31 mutated)
[2] = experiment (reporter, strain, medium): exp 4a: truncated aprE reporter, strain BJT201 with 2% xylose (RNase J1 expressed), cleavage site: cggR-gapA (positions -7 to +36 mutated)
[3] = experiment (reporter, strain, medium): exp 2b: truncated aprE reporter, strain BJT200, cleavage site: cggR-gapA (positions -7 to +36 mutated)

| Sequence | cleaved RNA product abundance [1] | cleaved RNA product abundance [2] | other results |
| --- | --- | --- | --- |
| CGACATGTCCCGCTTCTTTCATTAATCCATTAGCAACTGTTTTTCTATATACATTTACCTTTTAAGAGGAGGAAT | 0.319 | – | – |
| ACAGACGAAGGAGCCGCAAAGAAGTTAGTAAGGGATGAATAATACCTCAATATAAATATCTCTCACTTATTTAAA | – | 0.151 | – |
| ACAGACGAAGGAGCCGCAAAGAAGTTATAAAGGGATGAATAATTCCTCAATATAAATATCTCTCACTTATTTAAA | – | 0.293 | – |
| CGACATGTCCCGCTTCTTTCATTAATCGGTTAGCAACAGTTTTGCTATATACATTTACCTTTTAAGAGGAGGAAT | 0.927 | – | – |
| CGACATGTCCCGCTTCTTTCATTAATCCGTTAGCAACTGTTTTGCTATATATATTTATCTTTTAAGAGGAGGAAT | 1.3 | – | – |
| CGACATGTCCCGCTTCTTTCATTAACCCTTTAGCAACTGTTTTGCTATATACATTTACCTTTTAAGAGGAGGAAT | 0.181 | – | – |
| ACAGACGAAGGAGCCGCAAAGAAGTTATTAAGGGATGAATAATCCCTAAATATAAATATTTCTCACTTATTTAAA | – | 0.836 | – |
| CGACATGTCCCGCTTCTTTCATTAATCCGTTACCAACTGTTTTACTATATACATTTACCTTTTAAGAGGAGGAAT | 0.204 | – | – |
| ACAGACGAAGGAGCCGCAAAGAAGTTATTAAGGGATAAATAATCCCTCAATATAAAAATCTCTCACTTATTTAAA | – | 0.943 | – |
| CGACATGTCCCGCTTCTTTCATTAATCCGTTAACTACTGTTTTGCTATATACATTTACCTTTTAAGAGGAGGAAT | 0.265 | – | – |
| CGACATGTCCCGCTTCTTTCATTAATTCGTTAGCAACTGTTTAGCTATATACATTTACCTTTTAAGAGGAGGAAT | 0.488 | – | – |
| ACAGACGAAGGAGCCGCAAAGAAGTTATTAAGGGATGAATAACCCCTCAAAATAAATATCTCTCACTTATTTAAA | – | – | cleaved RNA product abundance [3]: 0.208 |
| ACAGACGAAGGAGCCGCAAAGAAGTAATTAAGGGATGAATAATCCCTAAATATAAATATCTCTCACTTATTTAAA | – | 0.234 | – |
| ACAGACGAAGGAGCCGCAAACAAGTTATTAAGGGATGAATAATCCCTCAATATAAATTTCTCTCACTTATTTAAA | – | 0.298 | – |
| CGACATGTCCCGCTTCTTTCATTACTCCGTTAGCAACTGTTTTGCTATACACATTTACCTTTTAAGAGGAGGAAT | 0.423 | – | – |
| ACAGACGAAGGAGCTGCAAAGAAGTTATTAAGGGATGAATAATCCCTCAATATAAATATCTCTCACTTATTTAAA | – | – | cleaved RNA product abundance (experiment (reporter, strain, medium): exp 6: tetM reporter, strain 168, cleavage site: cggR-gapA (positions -7 to +36 mutated)): 0.987 |
| ACAGACGAAGGAGCCGCAAAGAAGTTATTAAGGGATGGATACTCCCTCAATATAAATATCTCTCACTTATTTAAA | – | – | cleaved RNA product abundance [3]: 0.263 |
| ACAGACGAAGGAGCCGCAAAGAAGTTATTAATGGATGAATAATCCCTGAATATAAATATCTCTCACTTATTTAAA | – | 0.133 | cleaved RNA product abundance [3]: 0.0961 |

| Sequence | cleaved RNA product abundance [1] | cleaved RNA product abundance [2] | other results |
| --- | --- | --- | --- |
| CGACATGTCCCGCTTCTTTCATTAATCTGTTAGCAACTGTTTTGCTATATACATTTACATTTTAAGAGGAGGAAT | 1.2 | – | – |
| CGACATGTCCCGCTTCTTTCATTAATCCGTTAGCAACTGATTTACTATATACATTTACCTTTTAAGAGGAGGAAT | 0.502 | – | – |
| ACAGACGAAGGAGCCGCAAAGAAGTTATTGAGGGCTGAATAATCCCTCAATATAAATATCTCTCACTTATTTAAA | – | 0.167 | – |
| ACAGACGAAGGAGCCGCAAAAAAGTTATTAAGAGATGAATAATTCCTCAATATAAATATCTCTCACTTATTTAAA | – | 0.159 | – |
| ACAGACGAAGGAGCCGCAAAGAAGTTATTAAGGGATGAATAATACCTCAATATATATATCTCTCACTTATTTAAA | – | 0.123 | – |
| ACAGACGAAGGAGCCGCAAAGAAGTAATTAAGAGATAAATAATCCCTCAATATAAATATCTCTCACTTATTTAAA | – | 0.123 | – |
| ACAGACGAAGGAGCCGCAAATGAGTTATTAAAGGATGAATAATCCCTCAATATAAATATCTCTCACTTATTTAAA | – | – | cleaved RNA product abundance [3]: 0.181 |
| ACAGACGAAGGAGCCGCAAAGAAGTTATTAACGAATTAATAATCCCTCAATATAAATATCTCTCACTTATTTAAA | – | 0.0842 | – |
| ACAGACGAAGGAGCCGCAAAGAAGTTATTAAGGTATGAATAAACCCTCAATATAAATATCTCTCACTTATTTAAA | – | 0.124 | cleaved RNA product abundance [3]: 0.0972 |
| CGACATGTCCCGCTTCTTTCATTATTCCGTTAACAACTGTTTTGCTATATACATTTACCTTTTAAGAGGAGGAAT | 0.312 | – | – |
| ACAGACGAAGGAGCCGCAAAGAAGTTATTACGGGAAGAATAATCCCTCAATATAAATATCTCTCACTTATTTAAA | – | 0.322 | cleaved RNA product abundance [3]: 0.152 |
| CGACATGTCCCGCTTCTTTCATTAATCCGTTAGCGACAGTTTTGCTATATACATTTACCTTTTAAGAGGAGGAAT | 0.233 | – | – |
| ACAGACGAAGGAGCCGCAAAGCAGTTATTAAGGGATGAATAATCCCTCAAAATAAATATCTCTCACTTATTTAAA | – | 0.468 | – |
| ACAGACGAAGGAGCCGCAAAAAAGTTATTAAGAGATGAATAATCCGTCAATATAAATATCTCTCACTTATTTAAA | – | 0.0894 | – |
| ACAGACGAAGGAGCCGCAAAGAAGTTGTTAAGTGATGAATAATCCCTCAATATAAATATCTCTCACTTATTTAAA | – | 0.0952 | – |
| ACAGACGAAGGAGCCGCAAAAAAGTTAATAAGGGATGAATAATCCCTCAATATAAATATCTCTCACTTATTTAAA | – | 0.365 | cleaved RNA product abundance [3]: 0.335 |
| ACAGACGAAGGAGCCGCAAAAAAGTTATTAAGTGATGAATAATCCCTCAATATAAATATCTCTCACTTATTTAAA | – | 0.0972 | cleaved RNA product abundance [3]: 0.119 |
